{"source": "the DeepSol protein solubility set", "data": [{"assay": "soluble on expression in E. coli; label from the status in PepcDB or PDB records", "values": [{"sequence": "NIDGYNELTVGELTGPTTIETFPTPDLPGGLAGGVSWGPDAERFAVSVTGRTVNTNVFVVETETGESEQWTAASTAGIPQETLIEPEVVRFDSFDGREIPALFSPPDGAADGAGADGDTPVIVDIHGGPESQRRPSFSGLTQYFLSRGYAVFEPNVRGSTGYGKAYTHLDDVEKRMDSVKDLRAGVDWLHNHPAVDPDRIVAMGGSYGGFMVLAALTEYPDLWAAGVDVVGIANFVTFLENTGDWRRELREAEYGSLDTDREFLESISPINNVDRINAPLFVLHGANDPRVPVGEAEQIAEQAAEQGVPVEKLVFDDEGHGISKRENRIEAYTAVVEFLDDHV", "soluble on expression in E. coli": "not soluble"}, {"sequence": "MSLNESEEKNSNSTYSFFFKNLSVTGFYEENCLFMTVKELFDNSIDALCNNKGDENIDEEGQGTQEKKIEIEIKEYGINSSFYEIICRDNGEGIEVKDLEKISEMFLTSKEKCITSGKFGIGLKTILLYSFKTAYGFLHIKIKVKKNKIWDFILVLDKNLNHTFVQNFKEYIDDKWEWTIEISVILKINNNYISDKKIHSYIKLFLLWKKNITVKYIHNPNGEQSIYTYSSHSDTSEENILSMLANNSINMIFKKDFLTSYNYDVNMYVNVRKSEKIIPYEHGHNIGFLFLIRYVNSMPLLRTSSSDCSITVDFRNFLKYYGPQFGIELPTIESRDEMILEELALPSCFDDLNKVANIFPVKRSEKSTWNIMIIGIDVRGRDISFVSLRKNCIKEGEYLSSLIKKCSINLYNNIKRELPQEFENLSDYQLRQALNIYGVQLASSLSKIILKGHEEFKNKIFFLLNEKKKIKNNSTCEKEEYNNKFTSYDENILTRELYSHIKEKIMLNEKTYENPKAKIQLTGDSNKSYYKNEGHHHHHH", "soluble on expression in E. coli": "not soluble"}, {"sequence": "MASKLRRYIMNTTSLSLTPLLRHSVGFERFNDLFESMRNADDSTYAYPAYDIEKHGEDSYTITMAVPGFQESDLNIMVQNDQLTVSGRIQEKETKESEYLHRSIVTRAFEQTFRLADHMQVTGAEIKNGLLSIGLIREIPEEAKPRIIPIKSISDQESNKKGKTLEPESKKKISN", "soluble on expression in E. coli": "not soluble"}, {"sequence": "KTEIHGDSTKATLEEGQQLTLTFISTKLDVAVGSCHSLVANFLDGFLKFQTGSNSAFDVVEVEEPAGPAVLTIGLGHKGRLAVVLDYTRLNAALGSAAYVVEDSGCSSSEEVSFQGVGSGATLVVTTLGESPTAVSA", "soluble on expression in E. coli": "soluble"}, {"sequence": "MSLTASSSEEKADKSQELVIYSNSVSNGRGDWLTAKAKEAGFNIKMVDIAGAQLADRVIAEKNNAVADMVFGIGAVDSNKIRDQKLLVQYKPKWLDKIDQSLSDKDNYYNPVIVQPLVLIGAPDVKEMPKDWTELGSKYKGKYSIYGLQGGTGRAILASILVRYLDEKGDLGVSEKGWEVAKEYFANAYTLQKGESSVVKALDKESPIQYGMIWGSGALIGQKEQNVEFKVMTPEIGVPFVTEQTMVLSTSKKQALAKEFIDWFGQSEIQVEYSKKFGSIPANKDALKELPEDTKKFVDQVKPQNIDWEAVGKHLDEWVEKAELEYVKEGHHHHHH", "soluble on expression in E. coli": "soluble"}, {"sequence": "MKFELDTTDGRARRGRLVFDRGVVETPCFMPVGTYGTVKGMTPEEVEATGAQIILGNTFHLWLRPGQEIMKLHGDLHDFMQWKGPILTDSGGFQVFSLGDIRKITEQGVHFRNPINGDPIFLDPEKSMEIQYDLGSDIVMIFDECTPYPADWDYAKRSMEMSLRWAKRSRERFDSLGNKNALFGIIQGSVYEDLRDISVKGLVDIGFDGYAVGGLAVGEPKADMHRILEHVCPQIPADKPRYLMGVGKPEDLVEGVRRGIDMFDCVMPTRNARNGHLFVTDGVVKIRNAKYKSDTGPLDPECDCYTCRNYSRAYLHHLDRCNEILGARLNTIHNLRYYQRLMAGLRKAIEEGKLESFVTDFYQRQGREVPPLNVD", "soluble on expression in E. coli": "soluble"}, {"sequence": "MKIRQEKPAEYQAVERLTYQAFKELNLTENWRPTEHFIVHLLRESADFIPELSLVSETDQGKLTGHIMSSKAKLRLPDHTEKAVLTVGPLSVHPEAQNTGVGSALIKHSVQKAKELGIGGLIILGHPTYYTKFGFVPATTFQITLPEKETSEALLALELLPGYFGTSGGEWHFSTCFAYPETHPAELEAFEAELGINE", "soluble on expression in E. coli": "not soluble"}, {"sequence": "MFTIRKARIDDCGLINQMAGEVFPATYQEILSPGQLDYMMDWMYSPENIRKQMEEEGHVYFIAYEGDEPCGYVSVQQQEENVFHLQKIYVLPHFQGAHCGSFLFREAVRYIKEVHPEPCLMELNVNRNNKALLFYERMGMRKLREGDFPIGNGYYMNDYIMGLDI", "soluble on expression in E. coli": "not soluble"}, {"sequence": "MTWNPLALATALQTVPEQNIDVTNSENALIIKMNDYGDLQINILFTSRQMIIETFICPVSSISNPDEFNTFLLRNQKMMPLSSVGISSVQQEEYYIVFGALSLKSSLEDILLEITSLVDNALDLAEITEEYSHLEHHHHHH", "soluble on expression in E. coli": "soluble"}, {"sequence": "MAHHHHHHMKPLAPFVCRLPSRRILRVRGTDAHDFLQGIFTNDLRELHPAGSMYGCFLYFTGRVLCDAHLYQCKQVHEGQASILVDVHERSATELLDHLTEMKMRKKVHIDDVGKELVVLAALEETSADAQRSRDSASGCDARESSVTSLSPETLEERHTECFLDPRNDALFPRPPPPSSSSPPAAVTSPSFCLRKCVVPATWAPPLSSPDSYTTLLYSRGIGEGPDVFKCNKSLPFEGNLDFLKGVSFHKGCYVGQELTHRTHVMLVTRKRTVPLHFGPANVDPPAAGIITDEGAVTKTWPVEVGEPLYSAAREKIGEVTGVCGQVGIGLFRLRYVDKATHTVPGLQLKDGTPVQTHLPDWWPRKDVKKLLQNNS", "soluble on expression in E. coli": "soluble"}, {"sequence": "MSLTTILDIAKLAGVAKSTVSRYLNGGSVSEPTRQKIERVIKETGYIPNAFAQSLKAKQTNFIGTIVPRLDSFAASRTVMGIDDELKSLGYQMLMSNTDQSVEREIETIYNLANQKIAGVILLATVITKEHLNAFREVGIPTLLVGQEHTEVPCLIHDDFKAGYEMGKHVLSKGHKRIAYLGVGEHDIAVGVKRKEGFKQAMAEHGPCEVAYFETSFSMQDSFRVSPKMIETYQPSALVCATDNIALGALKGAYSIGMNVPKDLSITGFGGYEVTGIIHPSLTTVNFHFKAAGKMAARKMIKLMNGEEVNHLTRMDVELIERESVDNEGHHHHHH", "soluble on expression in E. coli": "soluble"}, {"sequence": "EEPSSNEIHIGSLVIFPDAYVVSKRDETIELTHREFELLHYLAKHIGQVMTREHLLQTVWGYDYFGDVRTVDVTVRRLREKIEDNPSHPNWIVTRRGVGYYLRNPEQD", "soluble on expression in E. coli": "soluble"}, {"sequence": "MSLTEKTDQTLMLIDGHSMAFRAFFALPAENFSTSGGQATNAVYGFLSMLSTLLKDEQPTHVAVAFDVGRKTFRTDMFPAYKAQREATPPEFKGQVEILKEVLSTLGITTIEKIDFEADDVIATLSVAAKPLGFKTLIVTGDRDSFQLVNDTTTVLYPMKGVSVLHRFTPEAVEEKYGLTPRQYPEFAALRGDPSDNLPNIPGVGEKTATKWIAQYETLDNLLDHADEIKGKVGASLRERIEQVRMNRKLTEMVKDLELPLGPDDFEMKPVQVAEVAAKFDDLEFGTNLRERVLAVVKAEGSAAPVEEVEAEQVVVDTQSLAQWLPARAGQALALALAGVAKPAAGDTYALAIADTKRHAVLVDVADISAEDEKALATWLASEDPKMLHGAKAAYHMLAGRGFELHGVVHDTAIAAYLLRPGQRTYELADVYQRHLQRQLSTNDNGGQLTLLDAADDQSLVDDVIAILELSEELTKQLQEIQAFELYHDLEIPLSGILARMEAIGEGHHHHHH", "soluble on expression in E. coli": "soluble"}, {"sequence": "MGSDKIHHHHHHMTDMTYDVEQDVVAESERISAIFSEVLDIGQVAATDNFFNLGGDSFDAIRVMSRLDGNLPIVALFEHPTAETLARFRLTEESLAITRLVPLFDQTKTNGPIVVICVPYGGGDPTAYRDLFNDHPDVRVFGVDFGDAEIHSPSDFSGLINTLVNEIEAIDAEQIIVYGHCAGAATAACLASAITFTTSAVSLVVAASNPVDDPDAAIHDAAMTSDADWGQYLRSLGAFNGLTDKETDAMLTKGRRDHFIATEAYRTLARQPARGIPAMLLLGDKDPATVKVEEIVNKWRKIIDLVKSANVTGGEHYFIRTHAQEVASKVLSFQLKHK", "soluble on expression in E. coli": "not soluble"}, {"sequence": "MKAYKLLTTASIGALMLGMSTAAYSDNWRYAHEEYEGDVQDVFAQAFKGYVEDNSDHTVQVYRFGELGESDDIMEQTQNGILQFVNQSPGFTGSLIPSAQIFFIPYLMPTDMDTVLEFFDESKAINEMFPKLYAEHGLELLKMYPEGEMVVTADEPITSPEDFDNKKIRTMTNPLLAETYKAFGATPTPLPWGEVYGGLQTGIIDGQENPIFWIESGGLYEVSPNLTFTSHGWFTTAMMANQDFYEGLSEEDQQLVQDAADAAYDHTIEHIKGLSEESLEKIKAASDEVTVTRLNDEQIQAFKERAPQVEEKFIEMTGEQGQELLDQFKADLKAVQSESEG", "soluble on expression in E. coli": "soluble"}, {"sequence": "MKTIAIRDVTGIMEPLPGFSVVRTDGSDGQRSIKLNGYKTTNNQYGYQFVKNENTVVYDDEEYIIKTHRERTYRKGVGVEATAIHRIFDDLRNNYIYDEKTGTLRLDAMLSFALEGSGYTFEIDTTDLPASVRVENFGWNNSLALFRDILEKFGAEFDYKGKKIYVAKKFGIQRDEPFLRYRFNVKDPEKEIDTSSFATYIRGYGKKDDKGNYLFAEYTSPLAKIYGIKHADPVKDERYTDKDSLLAAMKKQLNDNIDISLTFTAIELESMGLRDIKKGDYVWCVIEPFDLNVQLRAVSREDYSDETKSPTFTFGTITKKASDIIASFNTTKKAVDKVIDTSTGKIKDSAIDTTGLTTKSEFQSHVDNKIVHITAEERAAWNAASNSIGDLTFITWSTPTLKNGWIQYTANTESYPIQYGKDAIGTVNIRGAVSSGVVGSSTPVFTLPAGFRPPFPHLFIGVSSVATDGTPQYFRGIIKTNGDVCIENISNKDTPNQFIGIYTQFKAI", "soluble on expression in E. coli": "soluble"}, {"sequence": "MPIYEYACHACGLEKEHLQKMSDAPIANCPACGSSDYVKKVSAAGFQLKGTGWYVTDFRNKNTRSDSKPKEESGKEAADTDKAAATTTTDSTTATATTASTSTTAPTVSSVD", "soluble on expression in E. coli": "not soluble"}, {"sequence": "MSRQAKDDFLRHYTVSDPRTHPKGYTEYKVTAQFISKKDPEDVKEVVVWKRYSDFRKLHGDLAYTHRNLFRRLEEFPAFPRAQVFGRFEASVIEERRKGAEDLLRFTVHIPALNNSPQLKEFFRGGEVTRPLEVSRDLHILPPPLIPTPPPDDPRLSQLLPAERRGLEELEVPVDPPPSSPAQEALDLLFNCESTEEASGSPARGPLTEAELALFDPFSKEEGAAPSPTHVAELATMEVESARLDQEPWEPGGQEEEEDGEGGPTPAYLSQATELITQALRDEKAGAYAAALQGYRDGVHVLLQGVPSDPLPARQEGVKKKAAEYLKRAEEILRLHLSQLPP", "soluble on expression in E. coli": "soluble"}, {"sequence": "MSTVQVPKLNTKDLLTLEELTQEEIISLIEFAIYLKKNKQEPLLQGKILGLIFDKHSTRTRVSFEAGMVQLGGHGMFLNGKEMQMGRGETVSDTAKVLSHYIDGIMIRTFSHADVEELAKESSIPVINGLTDDHHPCQALADLMTIYEETNTFKGIKLAYVGDGNNVCHSLLLASAKVGMHMTVATPVGYKPNEEIVKKALAIAKETGAEIEILHNPELAVNEADFIYTDVWMSMGQEGEEEKYTLFQPYQINKELVKHAKQTYHFLHCLPAHREEEVTGEIIDGPQSIVFEQAGNRLHAQKALLVSLFKNVEELS", "soluble on expression in E. coli": "not soluble"}, {"sequence": "MLAAWLGCVLPAGAGLPVETLRVPPGFRVELLTEAMPSAREMALSPAGILYVGSRTGKVYALPLQVPGATVRVVASGLEQPVGVAWRDGSLYVSAVSRVVRLDRIDSRLDDPPVPVVVSDRFPTETHHGWKFIAFGPDGKLYVPVGAPCNVCHRDEDRYANLMRMNADGSSLEVVARGIRNTVGFDWHPVTHELWFTDNGADMMGDDVPDDELNRITAPGQHFGYPFCHAGDVPDPEFGAGHPCSRYVPPVGKLGAHVAALGMRFYTGSNFPQAYRHNLFIAEHGSWNRSSKVGYRVVRVVLDAAGKVVRQEPFVEGWLRGERAWGRPVDVLVAPDGSLLVSDDYAGAVYRVRYTGKLEHHHHHH", "soluble on expression in E. coli": "soluble"}]}]}
